B1: bispecific antibody AB23P9 (anti-CD19×CD3) (bispecific antibody)
chain: QVQLQESGPGLVKPTQTLSLTCTVSGGSISTSGMGVGWIRQHPGKGLEWIGHIWWDDDKRYNPALKSRVTISVDTSKNQVFLKLSSVTAADTAVYYCARMELWSYYFDYWGQGTTVTVSSGGGGSGGGGSGGGGSEIVLTQSPATLSLSPGERATITCRASQSVSYMHWYQQKPGQAPRLLIYDASNRASGVPSRFSGSGSGTDFTLTISSLEPEDAATYYCFQGSVYPFTFGQGTKLEIKGGGGGGSGGGGSGGGGSSSSSKAPPPSEVQLLESGGGLVQPGGSLKLSCAASGFTFNTYAMNWVRQAPGKGLEWVARIRSKYNNYATYYADSVKDRFTISRDDSKNTAYLQMNNLKTEDTAVYYCVRHGNFGNSYVSWFAYWGQGTLVTVSSGGGGSGGGGSGGGGSELVVTQEPSLTVSPGGTVTLTCRSSTGAVTTSNYANWVQQKPGQAPRGLIGGTNKRAPGTPARFSGSLLGGKAALTLSGVQPEDEAEYYCALWYSNLWVFGGGTKLTVLDKTHTCPPCPAPEAAGGPSVFLFPPKPKDQLMISRTPEVTCVVVDVSHEDPEVKFNWYVDGVEVHNAKTKPREEQYASTYRVVSVLTVLHQDWLNGKEYKCKVSNKALPASIEKTISKAKGQPREPQVYTLPPSRDELTKNQVSLTCLVKGFYPSDIAVEWESNGQPENNYKTTPPVLDSDGSFFLYSKLTVDKSRWQQGNVFSCSVLHEALHNHYTQKSLSLSPG
modifications: Homodimer: two identical copies of this chain, joined by covalent (hinge disulfide) bonds; one copy is given.
B2: bispecific antibody AB23P7 (anti-CD19×CD3) (bispecific antibody)
chain: QVQLQESGPGLVKPSQTLSLTCTVSGGSISTSGMGVGWIRQHPGKGLEWIGHIWWDDDKRYNPALKSRVTISVDTSKNQFSLKLSSVTAADTAVYYCARMELWSYYFDYWGQGTLVTVSSGGGGSGGGGSGGGGSEIVLTQSPATLSLSPGERATLSCSASSSVSYMHWYQQKPGQAPRLLIYDTSKLASGIPARFSGSGSGTDFTLTISSLEPEDVAVYYCFQGSVYPFTFGQGTKLEIKGGGGGGSGGGGSGGGGSSSSSKAPPPSEVQLLESGGGLVQPGGSLKLSCAASGFTFNTYAMNWVRQAPGKGLEWVARIRSKYNNYATYYADSVKDRFTISRDDSKNTAYLQMNNLKTEDTAVYYCVRHGNFGNSYVSWFAYWGQGTLVTVSSGGGGSGGGGSGGGGSELVVTQEPSLTVSPGGTVTLTCRSSTGAVTTSNYANWVQQKPGQAPRGLIGGTNKRAPGTPARFSGSLLGGKAALTLSGVQPEDEAEYYCALWYSNLWVFGGGTKLTVLDKTHTCPPCPAPEAAGGPSVFLFPPKPKDQLMISRTPEVTCVVVDVSHEDPEVKFNWYVDGVEVHNAKTKPREEQYASTYRVVSVLTVLHQDWLNGKEYKCKVSNKALPASIEKTISKAKGQPREPQVYTLPPSRDELTKNQVSLTCLVKGFYPSDIAVEWESNGQPENNYKTTPPVLDSDGSFFLYSKLTVDKSRWQQGNVFSCSVLHEALHNHYTQKSLSLSPG
modifications: Homodimer: two identical copies of this chain, joined by covalent (hinge disulfide) bonds; one copy is given.
B3: bispecific antibody AB23P10 (anti-CD19×CD3) (bispecific antibody)
chain: QVQLQESGPALVKPTQTLTLTCTFSGFSLSTSGMGVGWIRQPPGKALEWLAHIWWDDDKRYNPALKSRLTISKDTSKNQVFLTMTNMDPVDTATYYCARMELWSYYFDYWGQGTLVTVSSGGGGSGGGGSGGGGSENVLTQSPATLSVTPGEKATLSCSASSSVSYMHWYQQKPGQAPRLLIYDTSKLASGIPARFSGSGSGTDHTLTISSLEAEDVAVYYCFQGSVYPFTFGQGTKLEIKGGGGGGSGGGGSGGGGSSSSSKAPPPSEVQLLESGGGLVQPGGSLKLSCAASGFTFNTYAMNWVRQAPGKGLEWVARIRSKYNNYATYYADSVKDRFTISRDDSKNTAYLQMNNLKTEDTAVYYCVRHGNFGNSYVSWFAYWGQGTLVTVSSGGGGSGGGGSGGGGSELVVTQEPSLTVSPGGTVTLTCRSSTGAVTTSNYANWVQQKPGQAPRGLIGGTNKRAPGTPARFSGSLLGGKAALTLSGVQPEDEAEYYCALWYSNLWVFGGGTKLTVLDKTHTCPPCPAPEAAGGPSVFLFPPKPKDQLMISRTPEVTCVVVDVSHEDPEVKFNWYVDGVEVHNAKTKPREEQYASTYRVVSVLTVLHQDWLNGKEYKCKVSNKALPASIEKTISKAKGQPREPQVYTLPPSRDELTKNQVSLTCLVKGFYPSDIAVEWESNGQPENNYKTTPPVLDSDGSFFLYSKLTVDKSRWQQGNVFSCSVLHEALHNHYTQKSLSLSPG
modifications: Homodimer: two identical copies of this chain, joined by covalent (hinge disulfide) bonds; one copy is given.
B4: bispecific antibody AB23P8 (anti-CD19×CD3) (bispecific antibody)
chain: QVTLRESGPALVKPTQTLTLTCTFSGFSLSTSGMGVGWIRQPPGKALEWLAHIWWDDDKRYNPALKSRLTISKDTSKNQVFLTMTNMDPVDTATYYCARMELWSYYFDYWGQGTTVTVSSGGGGSGGGGSGGGGSENVLTQSPATLSVTPGEKATITCRASQSVSYMHWYQQKPGQAPRLLIYDASNRASGVPSRFSGSGSGTDHTLTISSLEAEDAATYYCFQGSVYPFTFGQGTKLEIKGGGGGGSGGGGSGGGGSSSSSKAPPPSEVQLLESGGGLVQPGGSLKLSCAASGFTFNTYAMNWVRQAPGKGLEWVARIRSKYNNYATYYADSVKDRFTISRDDSKNTAYLQMNNLKTEDTAVYYCVRHGNFGNSYVSWFAYWGQGTLVTVSSGGGGSGGGGSGGGGSELVVTQEPSLTVSPGGTVTLTCRSSTGAVTTSNYANWVQQKPGQAPRGLIGGTNKRAPGTPARFSGSLLGGKAALTLSGVQPEDEAEYYCALWYSNLWVFGGGTKLTVLDKTHTCPPCPAPEAAGGPSVFLFPPKPKDQLMISRTPEVTCVVVDVSHEDPEVKFNWYVDGVEVHNAKTKPREEQYASTYRVVSVLTVLHQDWLNGKEYKCKVSNKALPASIEKTISKAKGQPREPQVYTLPPSRDELTKNQVSLTCLVKGFYPSDIAVEWESNGQPENNYKTTPPVLDSDGSFFLYSKLTVDKSRWQQGNVFSCSVLHEALHNHYTQKSLSLSPG
modifications: Homodimer: two identical copies of this chain, joined by covalent (hinge disulfide) bonds; one copy is given.

Key:
[1] = target: CD19 on CD19-positive human tumor cells (Raji, Raji-Luc, NALM6, Reh) (human) (UniProt P15391); assay: cell-based or functional assay
[2] = target: CD3 on human T cells (expanded CIK effector cells) (human) (UniProt P07766); assay: flow cytometry on expanded CD3-positive human T cells (CIK)
[3] = target: CD19 on CD19-positive human tumor cells (Raji, Raji-Luc, NALM6, Reh) (human) (UniProt P15391); assay: flow cytometry on CD19-positive Raji cells, AF647 goat anti-human IgG detection
[4] = target: CD3 on the membrane of CIK cells (T cells) of a cynomolgus monkey (cynomolgus monkey) (UniProt Q95LI5); assay: flow cytometry on cynomolgus monkey CIK (T) cells
CD3 on the membrane of CIK cells (T cells) of a cynomolgus monkey (cynomolgus monkey), sequence (Q95LI5 22-198, chain 1 of 3): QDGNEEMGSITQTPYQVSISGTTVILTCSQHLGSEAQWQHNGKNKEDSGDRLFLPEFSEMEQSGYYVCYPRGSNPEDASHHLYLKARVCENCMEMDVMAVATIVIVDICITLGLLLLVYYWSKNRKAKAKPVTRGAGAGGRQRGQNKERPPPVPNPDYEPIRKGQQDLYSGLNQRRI
CD3 on the membrane of CIK cells (T cells) of a cynomolgus monkey (cynomolgus monkey), sequence (Q95LI8 22-171, chain 2 of 3, further chain): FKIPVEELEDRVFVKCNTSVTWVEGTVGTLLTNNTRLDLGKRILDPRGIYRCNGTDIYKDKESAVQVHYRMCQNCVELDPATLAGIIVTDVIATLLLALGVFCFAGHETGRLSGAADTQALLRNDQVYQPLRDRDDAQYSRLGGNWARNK
CD3 on the membrane of CIK cells (T cells) of a cynomolgus monkey (cynomolgus monkey), sequence (Q95LI7 23-181, chain 3 of 3, further chain): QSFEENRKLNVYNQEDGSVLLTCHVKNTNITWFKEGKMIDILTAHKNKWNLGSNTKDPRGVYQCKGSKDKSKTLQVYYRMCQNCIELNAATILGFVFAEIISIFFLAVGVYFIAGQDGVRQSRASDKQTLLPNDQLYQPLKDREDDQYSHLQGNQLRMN

CD19 on CD19-positive human tumor cells (Raji, Raji-Luc, NALM6, Reh) (human), sequence (P15391 20-556): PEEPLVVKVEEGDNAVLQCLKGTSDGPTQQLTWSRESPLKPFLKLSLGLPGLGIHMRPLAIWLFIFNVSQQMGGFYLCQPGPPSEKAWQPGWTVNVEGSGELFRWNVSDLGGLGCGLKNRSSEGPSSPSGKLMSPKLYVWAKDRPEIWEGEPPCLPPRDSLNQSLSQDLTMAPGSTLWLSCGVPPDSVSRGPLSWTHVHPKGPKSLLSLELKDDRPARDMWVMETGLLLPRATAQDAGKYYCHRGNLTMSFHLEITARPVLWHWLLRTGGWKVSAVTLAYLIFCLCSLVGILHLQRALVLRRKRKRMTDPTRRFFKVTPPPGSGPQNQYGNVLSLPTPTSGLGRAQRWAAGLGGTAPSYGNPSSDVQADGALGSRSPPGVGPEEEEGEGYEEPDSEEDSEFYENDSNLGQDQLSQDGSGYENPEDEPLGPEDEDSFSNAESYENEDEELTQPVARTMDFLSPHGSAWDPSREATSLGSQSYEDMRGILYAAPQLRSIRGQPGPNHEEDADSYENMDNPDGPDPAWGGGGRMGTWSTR
CD3 on human T cells (expanded CIK effector cells) (human), sequence (P07766 23-207, chain 1 of 3): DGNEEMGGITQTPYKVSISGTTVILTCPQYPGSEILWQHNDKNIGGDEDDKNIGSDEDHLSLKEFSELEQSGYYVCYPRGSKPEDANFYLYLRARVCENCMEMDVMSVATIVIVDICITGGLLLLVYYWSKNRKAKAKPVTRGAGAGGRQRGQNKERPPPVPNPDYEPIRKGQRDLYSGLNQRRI
CD3 on human T cells (expanded CIK effector cells) (human), sequence (P04234 22-171, chain 2 of 3, further chain): as the sequence (Q95LI8 22-171, chain 2 of 3, further chain) above, with V5I, K15N, V20I, T32S, N33D, N34I, A64T, N74S, L83V, R141H counted along it
CD3 on human T cells (expanded CIK effector cells) (human), sequence (P09693 23-182, chain 3 of 3, further chain): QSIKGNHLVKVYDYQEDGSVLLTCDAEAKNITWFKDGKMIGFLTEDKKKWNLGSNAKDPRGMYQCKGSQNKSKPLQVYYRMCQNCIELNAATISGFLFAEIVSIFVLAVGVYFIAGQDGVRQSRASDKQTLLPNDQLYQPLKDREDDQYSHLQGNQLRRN

Binder | EC50 of activation of NFAT-RE luciferase reporter Jurkat T cells in the presence of Raji target cells [1] | EC50 to mediate CIK to kill tumor cells (Raji-LUC) [1] | EC50 to mediate PBMCs to kill tumor cells (Raji-LUC) [1] | EC50 [2] | EC50 [3] | EC50 to mediate CIK to kill different tumor cells (Reh) [1] | EC50 to mediate CIK to kill tumor cells (Raji-LUC, second row without label) [1] | EC50 to mediate PBMCs to kill tumor cells (Raji-LUC, second row without label) [1] | EC50 [4] | EC50 to mediate CIK to kill different tumor cells (NALM6) [1] | EC50 to mediate PBMCs to kill tumor cells (Raji-LUC, third row without label) [1]
B1 | 853 pM | 0.148 pM | 1.01 pM | 49500 pM | 2600 pM | – | – | – | – | – | –
B2 | 1080 pM | 0.699 pM | 1.23 pM | 15700 pM | 1390 pM | 1.71 pM | 0.202 pM | 1.25 pM | 5500 pM | – | –
B3 | 709 pM | 0.128 pM | 0.946 pM | 32400 pM | 2680 pM | 1.64 pM | 0.483 pM | 1.25 pM | 5500 pM | 4.4 pM | 4.18 pM
B4 | 1120 pM | 0.586 pM | 1.02 pM | 16700 pM | 1920 pM | – | – | – | – | – | –

From patent US20220002407A1
